Literature values in PMC3137789.

Target: plexinC1 (Homo sapiens) (UniProt O60486)
Sequence of UniProt O60486 (O60486 35-944): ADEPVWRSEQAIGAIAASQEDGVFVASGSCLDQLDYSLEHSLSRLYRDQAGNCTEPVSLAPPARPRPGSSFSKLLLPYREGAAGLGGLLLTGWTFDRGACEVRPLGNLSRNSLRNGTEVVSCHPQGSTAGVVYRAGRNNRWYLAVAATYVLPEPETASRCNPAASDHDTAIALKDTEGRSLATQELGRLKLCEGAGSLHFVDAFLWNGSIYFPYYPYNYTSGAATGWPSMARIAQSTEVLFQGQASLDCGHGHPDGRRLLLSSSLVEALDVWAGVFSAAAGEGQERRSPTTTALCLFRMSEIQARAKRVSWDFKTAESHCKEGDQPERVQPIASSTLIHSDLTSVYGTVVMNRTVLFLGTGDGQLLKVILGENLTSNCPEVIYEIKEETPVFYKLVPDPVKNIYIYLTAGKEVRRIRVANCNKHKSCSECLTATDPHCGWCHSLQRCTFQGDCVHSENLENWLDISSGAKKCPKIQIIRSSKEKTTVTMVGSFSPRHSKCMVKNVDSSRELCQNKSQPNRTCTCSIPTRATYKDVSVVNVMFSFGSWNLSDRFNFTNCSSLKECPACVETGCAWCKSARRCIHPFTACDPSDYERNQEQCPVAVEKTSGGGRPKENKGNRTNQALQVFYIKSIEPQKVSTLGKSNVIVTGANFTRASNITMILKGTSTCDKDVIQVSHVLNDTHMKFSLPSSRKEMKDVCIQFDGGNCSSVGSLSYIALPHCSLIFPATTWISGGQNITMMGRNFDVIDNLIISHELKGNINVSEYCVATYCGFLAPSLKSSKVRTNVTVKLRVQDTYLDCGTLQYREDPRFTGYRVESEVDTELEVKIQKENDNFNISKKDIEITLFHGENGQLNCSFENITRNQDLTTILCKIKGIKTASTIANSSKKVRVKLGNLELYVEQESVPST

Kd: 300 nM
Substance: Sema7A (from UniProt O75326)
